# Measured values published in patent US20250154240A1, “ANTI-HUMAN CXCL1 ANTIBODY” (CHIOME BIOSCIENCE INC., priority 2022, published 2025).
# T1: HuCXCL3 (Homo sapiens, UniProt P19876)
# T1 construct: purchased PROTEINTECH
# T1 sequence (P19876 35-107): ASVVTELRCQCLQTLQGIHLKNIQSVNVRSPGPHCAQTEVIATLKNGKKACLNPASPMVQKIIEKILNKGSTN
# T2: MsCXCL1 (Mus musculus, UniProt P12850)
# T2 sequence (P12850 25-96): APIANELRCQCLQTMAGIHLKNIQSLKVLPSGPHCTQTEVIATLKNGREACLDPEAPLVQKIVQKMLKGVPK
# T3: HuCXCL5 (Homo sapiens, UniProt P42830)
# T3 sequence (P42830 37-114): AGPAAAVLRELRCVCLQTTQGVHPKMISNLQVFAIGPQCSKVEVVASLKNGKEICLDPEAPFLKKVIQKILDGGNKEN
# T4: HuCXCL1 (Homo sapiens, UniProt P09341)
# T4 construct: made in house; host or cells: Expi293 expression system (transient), protein from the culture supernatant
# T4 sequence (P09341 35-107): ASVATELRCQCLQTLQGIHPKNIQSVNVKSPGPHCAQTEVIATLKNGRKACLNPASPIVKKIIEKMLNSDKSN
# B1: Hu5A-5E11: humanized antibody VH1/VL1; VH SEQ ID NO: 76, VL SEQ ID NO: 78 (antibody, V domains shown)
# VH: QVQLVQSGAEVKKPGSSVKVSCKASGYAFSDYWMNWVRQAPGQGLEWIGQIYPGSGDTNYNAKFKGKGTITADKSTSTAYMELSSLRSEDTAVYYCARERDYDVAMDYWGQGTTVTVSS
# VL: DIQMTQSPSSLSASVGDRVTITCKASQDINKYIAWFQQKPGKAPKLVIHYTSILQPGVPSRFSGSGSGTDYTFTISSLQPEDIATYYCLQYDNLPWTFGGGTKVEIK
# How the values were obtained:
# [1] = tested on: OCUM-12 gastric cancer cell line; assay: Antitumor activity, treatment model with OCUM-12 orthotopic transplantation; format: in vivo, mouse; settings: compared to PBS
# Experimental: OCUM-12 cells were cultured in D-MED medium (FUJIFILM Wako Pure Chemical Corporation, Japan) supplemented with 10% fetal bovine serum (hereinafter abbreviated as FBS; Sigma-Aldrich Corporation) and 1/100 volumes of a penicillin-streptomycin mixture (Nacalai Tesque, Inc., Japan). The cells to be transplanted were detached with 0.25% trypsin/0.02% EDTA (Thermo Fisher Scientific) and washed with PBS, and 4×10^5 cells per mouse were transplanted into the gastric wall of each mouse. On the day following the transplantation, the mice were randomized into groups (8 mice per group) and intraperitoneally administered with test antibodies at a dose of 400 μg/head. […] After 3 weeks had passed from the transplantation, the mice were sacrificed, and the short- and long-axis diameters of tumors formed in their gastric walls were each measured with a caliper. The tumor size was calculated according to the following: 1/2 short-axis diameter (mm)×1/2 long-axis diameter (mm)×3.14. […]
# The dose-response relationship between antibody dose and in vivo antitumor activity or CXCR2 migration inhibitory activity was evaluated in a xenograft treatment model with OCUM-12 orthotopic transplantation. […] After 4 weeks had passed from the transplantation, the mice were sacrificed and evaluated.
# [2] = molecular target: T1, HuCXCL3; assay: ELISA, inhibition of binding of HuCXCL3 to GAG (heparin, heparan sulfate); format: biochemical; settings: antibody 0 to 10 μg/mL; biotin-labeled heparin or heparan sulfate 10 μg/mL
# Experimental: (§1) Thus, the effect of Hu5A-5E11 on the binding of CXCLs to GAG was evaluated by ELISA assay using plates on which the antigen (HuCXCL1 protein) used for immunization or HuCXCL2, 3 and 5 and MsCXCL1 and 2 proteins had been directly immobilized. CXCLs other than HuCXCL1 were purchased from PROTEINTECH and used. Biotin-labeled heparan sulfate and heparin were purchased from PG Research and used.
# (§2) To 96-well plates, phosphate-buffered saline (PBS) containing 3 μg/mL of HuCXCL1, 2, 3 or 5 or MsCXCL1 or 10 μg/mL of MsCXCL2 was added in a volume of 50 μL per well, and the plates were allowed to stand overnight at 4° C. After removal of the antigen solutions, PBS containing 0.05% Tween-20 (hereinafter referred to as the blocking solution) was added to each well for blocking reaction, and the plates were allowed to stand at room temperature for 30 minutes. […] TMB (Dako) was added as a chromogenic substrate solution to cause color development, and 1 N sulfuric acid was added to stop the reaction, followed by measurement of absorbance at 450 nm. The binding rate of CXCLs to GAG was calculated as a ratio relative to the absorbance measured in the absence of the antibody, which was set to 100%.
# [3] = molecular target: T2, MsCXCL1; assay: ELISA, inhibition of binding of MsCXCL1 to GAG (heparin, heparan sulfate); format: biochemical; set-up: purchased PROTEINTECH; settings: antibody 0 to 10 μg/mL; biotin-labeled heparin or heparan sulfate 10 μg/mL
# Experimental: as §1, §2
# [4] = molecular target: T1, HuCXCL3; assay: FACS, inhibition of binding of APC-labeled HuCXCL3 to HEK293 cells forced to express HuCXCR2; format: cell-based; settings: APC-labeled ligand 10 μg/mL; HEK293 cells expressing HuCXCR2
# Experimental: (§3) Chemokines are stabilized by directly binding to GAG on the cell surface and thereby allow efficient signal transduction to their receptors. […] Then, to evaluate whether Hu5A-5E11 inhibits the binding of CXCLs to cells, the binding of fluorescently labeled CXCLs to cells was measured as fluorescence intensity by flow cytometry in FACS. For this purpose, HEK293 cells forced to express HuCXCR2 were used. For use as HuCXCL1, 2, 3 and 5 and MsCXCL1, the proteins in above were labeled with APC.
# (§4) The cultured cells were detached and washed with PBS, and then suspended at 5.0× 10^5 cells/mL in PBS containing 1% BSA (hereinafter referred to as the FACS buffer). Each of the APC-labeled ligands and Hu5A-5E11 were mixed at final concentrations of 10 μg/mL and 16.7 μg/mL, respectively, and reacted at room temperature for 30 minutes, and then added to the cell suspension and reacted on ice for 30 minutes. After washing with the FACS buffer, the cells were suspended again in PBS containing 1% 7-AAD, 0.5% BSA and 2 mM EDTA, followed by the above flow cytometry to measure fluorescence intensity.
# [5] = molecular target: T3, HuCXCL5; assay: FACS, inhibition of binding of APC-labeled HuCXCL5 to HEK293 cells forced to express HuCXCR2; format: cell-based; set-up: purchased PROTEINTECH; host or cells: CXCR2: transfected HEK293 cells; settings: APC-labeled ligand 10 μg/mL; HEK293 cells expressing HuCXCR2
# Experimental: as §3, §4
# [6] = molecular target: T4, HuCXCL1; assay: ELISA, inhibition of binding of HuCXCL1 to GAG (heparin, heparan sulfate); format: biochemical; settings: antibody 0 to 10 μg/mL; biotin-labeled heparin or heparan sulfate 10 μg/mL
# Experimental: as §1, §2
molecule,measurement,setting,value
B1,Dose significantly suppressing the tumor area,[1],≥ 60 μg/head
same,Inhibitory activity against the binding of HuCXCL3 to GAG,[2],"inhibit the binding of HuCXCL1, 2, 3 and 5 and MsCXCL1 to GAG in an antibody concentration-dependent manner"
same,Inhibitory activity against the binding of MsCXCL1 to GAG,[3],"inhibit the binding of HuCXCL1, 2, 3 and 5 and MsCXCL1 to GAG in an antibody concentration-dependent manner"
same,Inhibitory activity against the binding of HuCXCL3 to cells (fluorescence intensity),[4],reduce the fluorescence intensity of the cells in an antibody concentration-dependent manner
same,Inhibitory activity against the binding of HuCXCL5 to cells (fluorescence intensity),[5],reduce the fluorescence intensity of the cells in an antibody concentration-dependent manner
same,Inhibitory activity against the binding of HuCXCL1 to GAG,[6],"inhibit the binding of HuCXCL1, 2, 3 and 5 and MsCXCL1 to GAG in an antibody concentration-dependent manner"
